Entries after “also recorded” stand apart in the source; their conditions may differ.

One test deals with T1, LRP6 E1E2 (Homo sapiens, UniProt O75581).
T1 construct: construct E1E2-amino acids A20-E631 of LPR6; made in house; host or cells: Tni insect cells (baculovirus, secreted)
T1 sequence (O75581 20-631): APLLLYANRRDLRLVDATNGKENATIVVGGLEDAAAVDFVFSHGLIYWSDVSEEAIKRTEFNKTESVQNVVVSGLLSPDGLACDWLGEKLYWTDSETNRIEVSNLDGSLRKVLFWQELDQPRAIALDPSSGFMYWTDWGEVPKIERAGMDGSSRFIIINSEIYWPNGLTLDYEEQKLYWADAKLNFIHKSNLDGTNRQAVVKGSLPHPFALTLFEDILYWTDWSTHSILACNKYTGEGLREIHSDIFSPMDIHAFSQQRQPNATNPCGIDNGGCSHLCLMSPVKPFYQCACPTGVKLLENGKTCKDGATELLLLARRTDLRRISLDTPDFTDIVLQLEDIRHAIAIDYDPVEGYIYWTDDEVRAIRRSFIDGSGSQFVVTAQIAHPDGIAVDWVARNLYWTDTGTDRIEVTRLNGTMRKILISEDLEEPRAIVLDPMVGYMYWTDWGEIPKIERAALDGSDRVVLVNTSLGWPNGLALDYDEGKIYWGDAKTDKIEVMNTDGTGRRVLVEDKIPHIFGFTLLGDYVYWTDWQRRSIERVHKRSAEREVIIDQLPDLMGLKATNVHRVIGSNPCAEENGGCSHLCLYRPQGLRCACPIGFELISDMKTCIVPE
As to the kind of experiment: Biolayer interferometry binding to LRP6 E1E2. As to the method: (§1) Binding kinetics were measured by biolayer interferometry using an Octet Red instrument (ForteBio) as previously described (11). Streptavidin (SA) biosensors were loaded with biotinylated hLRP6 in 50 mMTris, pH 8, 300 mM NaCl, 5% (v/v) glycerol, and 0.05% (w/v) Triton X-100. The loaded biosensors were washed in the same buffer before carrying out association and dissociation measurements for the indicated times. The Kd of each interaction was determined using steady state-analysis through the Octet Red software v6.3. Each reported value represents an average of three or more experiments at different concentrations, with a fitted experimental curve for which the square of the correlation coefficient (R^2) is above 0.96.
(§2) The interaction of the different Dkks and sclerostin with various domains of LRP6 was measured using a biolayer interferometry assay (11). Purified receptors contained individual β-propeller-EGF-like units (E1, E2, or E4), two β-propellers (E1E2 or E3E4), or four β-propellers (E1E4))—as follows:
(§3) Human LRP6: construct E1E4-amino acids A20-Q1253 of LPR6; construct E1E2-amino acids A20-E631 of LPR6; construct E3E4 amino acids E631-Q1253 of LPR6; construct E1-amino acids A20-D325 of LPR6; construct E2-amino acids […]-E631 of LPR6; construct E4-T933-Q1253. The individual LRP6 β-propeller E3 could not be expressed.

The target in a further test is T2, LRP6 E3E4 (Homo sapiens, UniProt O75581).
T2 construct: construct E3E4 amino acids E631-Q1253 of LPR6; made in house; host or cells: Tni insect cells (baculovirus, secreted)
T2 sequence (O75581 631-1253): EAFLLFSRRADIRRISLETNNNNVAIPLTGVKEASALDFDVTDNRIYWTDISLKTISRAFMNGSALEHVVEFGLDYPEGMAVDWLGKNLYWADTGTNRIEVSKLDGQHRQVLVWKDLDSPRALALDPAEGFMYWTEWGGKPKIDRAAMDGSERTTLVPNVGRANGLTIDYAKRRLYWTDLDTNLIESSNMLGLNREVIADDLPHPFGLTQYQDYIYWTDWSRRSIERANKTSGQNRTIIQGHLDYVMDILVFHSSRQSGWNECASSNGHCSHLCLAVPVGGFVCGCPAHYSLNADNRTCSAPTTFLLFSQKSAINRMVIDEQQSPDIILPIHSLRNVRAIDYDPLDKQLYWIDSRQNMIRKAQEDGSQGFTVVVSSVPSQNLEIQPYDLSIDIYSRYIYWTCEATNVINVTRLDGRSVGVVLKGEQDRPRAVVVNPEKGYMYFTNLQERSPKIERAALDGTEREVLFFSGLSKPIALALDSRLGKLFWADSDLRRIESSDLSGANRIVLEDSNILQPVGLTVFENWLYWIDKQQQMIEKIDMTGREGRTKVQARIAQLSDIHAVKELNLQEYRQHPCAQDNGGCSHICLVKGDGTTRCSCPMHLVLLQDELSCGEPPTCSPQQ
As to the kind of experiment: Biolayer interferometry binding to LRP6 E3E4. The essentials: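 Biotinylated human LRP6 ectodomain constructs (β-propeller-EGF units, e.g. E2 D235–E631, E1E2 A20–E631, E3E4 E631–Q1253) were loaded on streptavidin sensors in pH 8 Tris, 300 mM NaCl, 5% glycerol, 0.05% Triton X-100, then exposed to Dkks or sclerostin. Kd came from steady-state analysis, averaging ≥3 concentrations (R²>0.96).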

The next test concerns the target T3, LRP6 E1 (Homo sapiens, UniProt O75581).
T3 construct: construct E1-amino acids A20-D325 of LPR6; made in house; host or cells: Tni insect cells (baculovirus, secreted)
T3 sequence (O75581 20-325): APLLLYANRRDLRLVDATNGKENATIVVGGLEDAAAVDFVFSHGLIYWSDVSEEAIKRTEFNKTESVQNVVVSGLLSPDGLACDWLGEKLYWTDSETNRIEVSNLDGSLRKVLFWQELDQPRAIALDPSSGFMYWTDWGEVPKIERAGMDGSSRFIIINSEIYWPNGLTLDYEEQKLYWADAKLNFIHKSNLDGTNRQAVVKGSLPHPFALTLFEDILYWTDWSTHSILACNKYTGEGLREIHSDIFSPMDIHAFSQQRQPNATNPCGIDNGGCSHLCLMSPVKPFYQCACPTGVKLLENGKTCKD
Nature of the test: Biolayer interferometry binding to LRP6 E1. Here is the method: as §1, §2, §3

For the next test, the target named is T4, LRP6 E2 (Homo sapiens, UniProt O75581).
T4 construct: construct E2-amino acids D235-E631 of LPR6; made in house; host or cells: Tni insect cells (baculovirus, secreted)
T4 sequence (O75581 325-631 limits assumed): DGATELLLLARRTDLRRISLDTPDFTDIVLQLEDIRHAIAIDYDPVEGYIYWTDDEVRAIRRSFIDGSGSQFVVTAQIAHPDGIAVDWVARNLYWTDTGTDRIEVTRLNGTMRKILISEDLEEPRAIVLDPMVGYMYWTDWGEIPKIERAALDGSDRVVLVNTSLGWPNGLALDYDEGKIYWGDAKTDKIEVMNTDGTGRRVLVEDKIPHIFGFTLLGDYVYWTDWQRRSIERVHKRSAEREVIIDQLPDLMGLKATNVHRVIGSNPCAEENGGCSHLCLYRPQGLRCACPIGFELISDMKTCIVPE
As to the kind of experiment: Biolayer interferometry binding to LRP6 E2. As to the method:
as §1, §2, §3

With “sclerostin: Sclerostin protein, Wnt pathway inhibitor, expressed in insect cells (LPNAIGR)”, in the test with LRP6 E1E2, the “binding to LRP6 E1E2 (in words)” value is listed as “binds”. Besides, the “binding to LRP6 E3E4 (in words)” value with LRP6 E3E4 was “does not interact”. Moreover, the “binding to LRP6 E1 (in words)” value in the test with LRP6 E1 is given as “binds”. In the test with LRP6 E2, the “binding to LRP6 E2 (in words)” value was “very weak or non-specific binding”.

As for “Dkk1: Dickkopf 1 protein, Wnt pathway inhibitor, expressed in insect cells (NSNAIKN)”, the Kd turned out to be 22 nM with LRP6 E1E2 (steady state, read-out: affinity for LRP6 E1E2) and 51 nM with LRP6 E3E4 (steady state, read-out: affinity for LRP6 E3E4). For the same molecule, in the test with LRP6 E1, the “binding to LRP6 E1 (in words)” value was “bind with high affinity”. In the test with LRP6 E2, the “binding to LRP6 E2 (in words)” value was “Partial binding”.

B1: Dkk1 Ile42Glu (ligand, human, UniProt O94907 32-266, looked up)
chain: TLNSVLNSNAEKNLPPPLGGAAGHPGSAVSAAPGILYPGGNKYQTIDNYQPYPCAEDEECGTDEYCASPTRGGDAGVQICLACRKRRKRCMRHAMCCPGNYCKNGICVSSDQNHFRGEIEETITESFGNDHSTLDGYSRRTTLSSKMYHTKGQEGSVCLRSSDCASGLCCARHFWSKICKPVLKEGQVCTKHRRKGSHGLEIFQRCYCGEGLSCRIQKDHHQASNSSRLHTCQRH
notes: also called Dkk1 I42E
Turning to B1, the “binding to LRP6 E1E2 (in words)” value in the test with LRP6 E1E2 is recorded as “affect binding”. In addition, in the test with LRP6 E3E4, the “binding to LRP6 E3E4 (in words)” value is listed as “not to E3E4”.

B2: Dkk1 K211E (ligand, human, UniProt O94907 32-266, looked up)
chain: TLNSVLNSNAIKNLPPPLGGAAGHPGSAVSAAPGILYPGGNKYQTIDNYQPYPCAEDEECGTDEYCASPTRGGDAGVQICLACRKRRKRCMRHAMCCPGNYCKNGICVSSDQNHFRGEIEETITESFGNDHSTLDGYSRRTTLSSKMYHTKGQEGSVCLRSSDCASGLCCARHFWSKICEPVLKEGQVCTKHRRKGSHGLEIFQRCYCGEGLSCRIQKDHHQASNSSRLHTCQRH
notes: also called Dkk1 Lys211Glu
For the molecule B2, the “binding to LRP6 E3E4 (in words)” value with LRP6 E3E4 is “interfered with binding; also recorded: affect binding”.

The record behind these values is US20140235820A1, “METHODS AND COMPOSITIONS FOR MODULATING THE Wnt PATHWAY” (Genentech, Inc., priority 2010, published 2014).
